In patent publication US20260184782A1:

Target: human TIGIT-Fc (human) (UniProt Q495A1)
Test: CD155 competition ELISA, single point

Chain of human TIGIT-Fc (human) (Q495A1 22-141 limits assumed): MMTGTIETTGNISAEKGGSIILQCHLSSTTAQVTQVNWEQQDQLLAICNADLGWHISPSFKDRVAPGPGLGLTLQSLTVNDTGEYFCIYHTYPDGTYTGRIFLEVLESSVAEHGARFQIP

B1: TIGIT-SC153 (Fc fusion)
VHH: EVQLVESGGGLVQPGGSLRLSCAASGNTFSGGFMGWFRQAPGKEREWVASVLRGGYTWYADSVKGRFTISADNSKNTAYLQMNSLKPEDTAVYYCARAGGCSGTSCYDGWFDPWGQGTLVTVSS
With B1 the OD (450 nm) was 0.8 OD.
